Assay [1] has as its target Recombinant human FAP (R&D systems, #3715-SE) (human, UniProt Q12884 26-760). Put plainly: cell-based or functional assay.
Assay [2] addresses T1, fibroblast activation protein (FAP) on FAP-expressing human WI-38 fibroblasts (human, UniProt Q12884 1-760).
T1 construct: also called human FAP
Put plainly: competitive FACS, WI-38 cells, vs Cy5 tracer m3; D = pIC50 <=6.0.

Assay [3] has as its target T2, human fibroblast activating protein (FAP) on WI-38 fibroblasts (human, UniProt Q12884 1-760).
T2 construct: FAP-expressing human WI-38 fibroblasts (ECACC)
Description: competitive FACS on WI-38 cells vs 3 nM Cy5-labeled peptide; pIC50 category A = >8.0.

Assay [4] concerns the target T3, Human recombinant FAP captured on anti-FAP antibody (SPR) (human, UniProt Q12884 26-760).
T3 construct: whole entry of human FAP named; also called rhFAP
Description: SPR (Biacore), rhFAP captured by anti-FAP antibody; pKD category A = >8.0.

Assay [5] deals with T4, human fibroblast activation protein (FAP) on WI-38 fibroblasts (human, UniProt Q12884 1-760).
T4 construct: FAP-expressing human WI-38 fibroblasts (ECACC)
Put plainly: competitive FACS, WI-38 cells, Cy5-labeled peptide as competitor; C = pIC50 6.1 to 7.0.

Values joined by “and” are separate entries in the source; they are usually repeats but may differ in a detail not shown here. Equal values may be shown once. Numbered stars: 1 amine (or outer) side, 2 acyl side, 3 side chain; on linkers, the order of the positions; unused ones are H or OH. Bridge positions count the residues as written; N and C are the ends. Square brackets hold non-standard residues; d marks the D form. Primed or numbered codes have the meaning given here. * marks the point of attachment. tMeBn(DOTA-PP) = 1,3,5-trimethylbenzylidene, two thioethers to Cys, third CH2 bound to one N of piperazine whose other N bears DOTA, O=C(O)CN1CCN(CC(=O)O)CCN(CC(=O)N2CCN(Cc3cc(C[*:1])cc(C[*:2])c3)CC2)CCN(CC(=O)O)CC1; TBMB(SCH2CH2NH-DOTA) = O=C(O)CN1CCN(CC(=O)O)CCN(CC(=O)NCCSCc2cc(C[*:1])cc(C[*:2])c2)CCN(CC(=O)O)CC1; Ttds = 1,13-diamino-4,7,10-trioxatridecan-succinamic acid, O=C(CCC(=O)[*:2])NCCCOCCOCCOCCCN[*:1]; 3MeBn = 3-Methylbenzylidene (m-xylylene thioether bridge from α,α′-dibromo-m-xylene); Ttds(4) = spacer between chelator and peptide, O=C(CCC(=O)[*:2])NCCCOCCOCCOCCCN[*:1]; Opc = (S)-N-(pyrazinylcarbonyl)-ornithine, O=C(NCCC[C@H](N[*:1])C(=O)[*:2])c1cnccn1; N4Ac = 6-Carboxy-1,4,8,11-tetraazaundecane, an N4-chelator, NCCNCC(CNCCN)C(=O)*; DTPA = O=C(O)CN(CCN(CC(=O)O)CC(=O)O)CCN(CC(=O)O)CC(=O)*; Pro(trans-4-Ph) = O=C(O)[C@@H]1C[C@@H](c2ccccc2)CN1; nBu‑CAyl = n-butylaminocarbonyl, CCCCNC(=O)*; Pro(4S-NH2) = N[C@@H]1CN[C@H](C(=O)O)C1; mXylylene = c1cc(C[*:1])cc(C[*:2])c1; PPAc = 4-Carboxymethyl piperazine; Pen = CC(C)(S)[C@H](N)C(=O)O; Nle = CCCC[C@H](N)C(=O)O; Orn = NCCC[C@H](N)C(=O)O; Hexanoyl = CCCCCC(=O)*; Sar = CNCC(=O)O

B1: Hex-[Cys(3MeBn)-Pro-Eay-Thr-Glu-Phe-Cys]-NH2 (peptide)
peptide: Hexanoyl-CP[Pro(trans-4-Ph)]TEFC-NH2
modifications: linker 1-7 via mXylylene
SMILES: CCCCCC(=O)N[C@H]1CSCc2cccc(c2)CSC[C@@H](C(N)=O)NC(=O)[C@H](Cc2ccccc2)NC(=O)[C@H](CCC(=O)O)NC(=O)[C@H]([C@@H](C)O)NC(=O)[C@@H]2C[C@@H](c3ccccc3)CN2C(=O)[C@@H]2CCCN2C1=O
notes: also called 3BP-3353
Consider B1, for which the “pIC50 Category (Activity)” value in assay [1] was 6.1 pIC50 and 7 pIC50. For the same molecule, the “pIC50 Category (FACS)” value in assay [2] was not above 6 pIC50.

B2: nBu-CAyl-[C(tMeBn(NODAGA-AET))-PPTEFC]-OH (peptide)
peptide: CPPTEFC
modifications: N-term nBu-CAyl-; Cys1 and Cys7 thioether-bridged by tMeBn(NODAGA-AET); C-term -OH
notes: also called 3BP-4724
The molecule B2 registered a pIC50 in assay [3] of more than 8 pic50.

B3: nBu-CAyl-[Cys(tMeBn(DOTA-AET))-Nmg-Pro-Thr-Gln-Phe-Cys]-OH (peptide)
peptide: {nBu‑CAyl}-C[Sar]PTQFC-OH
modifications: linker 1-7 via TBMB(SCH2CH2NH-DOTA)
SMILES: CCCCNC(=O)N[C@H]1CSCc2cc(CSCCNC(=O)CN3CCN(CC(=O)O)CCN(CC(=O)O)CCN(CC(=O)O)CC3)cc(c2)CSC[C@@H](C(=O)O)NC(=O)[C@H](Cc2ccccc2)NC(=O)[C@H](CCC(N)=O)NC(=O)[C@H]([C@@H](C)O)NC(=O)[C@@H]2CCCN2C(=O)CN(C)C1=O
notes: also called 3BP-4607
Consider B3, for which, in assay [4], the pKD was more than 8 pkd.

B4: DTPA-Ttds-Nle-[Cys-(3MeBn)-Pro-Pro-Thr-Glu-Phe-Cys]-OH (peptide)
peptide: {DTPA}-[Ttds][Nle]CPPTEFC-OH
modifications: linker 3-9 via mXylylene
SMILES: CCCC[C@H](NC(=O)CCC(=O)NCCCOCCOCCOCCCNC(=O)CN(CCN(CCN(CC(=O)O)CC(=O)O)CC(=O)O)CC(=O)O)C(=O)N[C@H]1CSCc2cccc(c2)CSC[C@@H](C(=O)O)NC(=O)[C@H](Cc2ccccc2)NC(=O)[C@H](CCC(=O)O)NC(=O)[C@H]([C@@H](C)O)NC(=O)[C@@H]2CCCN2C(=O)[C@@H]2CCCN2C1=O
notes: also called 3BP-4229
For the molecule B4, the pIC50 in assay [5] lay within 6.1 to 7 pic50.

B5: Hex-[Cys(3MeBn)-Pro-Pro-Orn(Ac)-Glu-Phe-Cys]-NH2 (peptide)
peptide: Hexanoyl-CPP[Orn](Ac)EFC-NH2
modifications: linker 1-7 via mXylylene
SMILES: CCCCCC(=O)N[C@H]1CSCc2cccc(c2)CSC[C@@H](C(N)=O)NC(=O)[C@H](Cc2ccccc2)NC(=O)[C@H](CCC(=O)O)NC(=O)[C@H](CCCNC(C)=O)NC(=O)[C@@H]2CCCN2C(=O)[C@@H]2CCCN2C1=O
notes: also called 3BP-3372
With B5, the “pIC50 Category (Activity)” value in assay [1] is 6.1 pIC50 and 7 pIC50. For the same molecule, in assay [2], the “pIC50 Category (FACS)” value is not above 6 pIC50.

B6: Hex-[Cys(3MeBn)-Pro-Tap-Thr-Glu-Phe-Cys]-NH2 (peptide)
peptide: Hexanoyl-CP[Pro(4S-NH2)]TEFC-NH2
modifications: linker 1-7 via mXylylene
SMILES: CCCCCC(=O)N[C@H]1CSCc2cccc(c2)CSC[C@@H](C(N)=O)NC(=O)[C@H](Cc2ccccc2)NC(=O)[C@H](CCC(=O)O)NC(=O)[C@H]([C@@H](C)O)NC(=O)[C@@H]2C[C@H](N)CN2C(=O)[C@@H]2CCCN2C1=O
notes: also called 3BP-3367
B6: the “pIC50 Category (Activity)” value in assay [1] was 6.1 pIC50 and 7 pIC50. Further, in assay [2], the “pIC50 Category (FACS)” value is not above 6 pIC50.

B7: N4Ac-PPAc-Ttds-Nle-[C(3MeBn)-PPTEFC]D-OH (peptide)
peptide: {N4Ac-PPAc-Ttds(4)}-[Nle]CPPTEFCD-OH
modifications: linker 2-8 via 3MeBn
notes: also called 3BP-4785
As to B7, in assay [3], the pIC50 is more than 8 pic50.

B8: Hex-[Cys(3MeBn)-Pro-Pro-Thr-Glu-Phe-Pen]-NH2 (peptide)
peptide: Hexanoyl-CPPTEF[Pen]-NH2
modifications: linker 1-7 via mXylylene
SMILES: CCCCCC(=O)N[C@H]1CSCc2cccc(c2)CSC(C)(C)[C@@H](C(N)=O)NC(=O)[C@H](Cc2ccccc2)NC(=O)[C@H](CCC(=O)O)NC(=O)[C@H]([C@@H](C)O)NC(=O)[C@@H]2CCCN2C(=O)[C@@H]2CCCN2C1=O
notes: also called 3BP-3351
Turning to B8, the “pIC50 Category (Activity)” value in assay [1] is 6.1 pIC50 and 7 pIC50. Also, the “pIC50 Category (FACS)” value in assay [2] was not above 6 pIC50.

B9: Hex-[Cys(tMeBn(DOTA-PP))-Pro-Pro-Ala-Gln-Phe-Cys]-Asp-NH2 (peptide)
peptide: Hexanoyl-CPPAQFCD-NH2
modifications: linker 1-7 via tMeBn(DOTA-PP)
SMILES: CCCCCC(=O)N[C@H]1CSCc2cc(cc(CN3CCN(C(=O)CN4CCN(CC(=O)O)CCN(CC(=O)O)CCN(CC(=O)O)CC4)CC3)c2)CSC[C@@H](C(=O)N[C@@H](CC(=O)O)C(N)=O)NC(=O)[C@H](Cc2ccccc2)NC(=O)[C@H](CCC(N)=O)NC(=O)[C@H](C)NC(=O)[C@@H]2CCCN2C(=O)[C@@H]2CCCN2C1=O
notes: also called 3BP-3745
As for B9, the pIC50 in assay [5] fell in the range of 6.1 to 7 pic50.

B10: Hex-[Cys(tMeBn(DOTA-PP))-Pro-Pro-Thr-Ala-Phe-Cys]-Asp-NH2 (peptide)
peptide: Hexanoyl-CPPTAFCD-NH2
modifications: linker 1-7 via tMeBn(DOTA-PP)
SMILES: CCCCCC(=O)N[C@H]1CSCc2cc(cc(CN3CCN(C(=O)CN4CCN(CC(=O)O)CCN(CC(=O)O)CCN(CC(=O)O)CC4)CC3)c2)CSC[C@@H](C(=O)N[C@@H](CC(=O)O)C(N)=O)NC(=O)[C@H](Cc2ccccc2)NC(=O)[C@H](C)NC(=O)[C@H]([C@@H](C)O)NC(=O)[C@@H]2CCCN2C(=O)[C@@H]2CCCN2C1=O
notes: also called 3BP-3739
B10 showed a pIC50 in assay [5] of 6.1 to 7 pic50.

B11: Hex-[Cys(3MeBn)-Pro-Pro-Opc-Glu-Phe-Cys]-NH2 (peptide)
peptide: Hexanoyl-CPP[Opc]EFC-NH2
modifications: linker 1-7 via mXylylene
SMILES: CCCCCC(=O)N[C@H]1CSCc2cccc(c2)CSC[C@@H](C(N)=O)NC(=O)[C@H](Cc2ccccc2)NC(=O)[C@H](CCC(=O)O)NC(=O)[C@H](CCCNC(=O)c2cnccn2)NC(=O)[C@@H]2CCCN2C(=O)[C@@H]2CCCN2C1=O
notes: also called 3BP-3355
As to B11, in assay [1], the “pIC50 Category (Activity)” value is 6.1 pIC50 and 7 pIC50. The “pIC50 Category (FACS)” value in assay [2] was not above 6 pIC50.

Source of the values: patent publication US20230212549A1 (3B PHARMACEUTICALS, published 2023).
